Measured values: patent US6613536B1, “Synthetic peptides and pharmaceutical compositions comprising them for the treatment of systemic lupus erythematosus” (Yeda Research and Development Co. Ltd., priority 1995, dated 2003)

How the values were obtained:
[1] = tested on: antibodies in sera of SLE patients and healthy controls; experiment: Antibodies in human sera binding coated peptides or mAb 5G12 (ELISA); conditions: 32 SLE patients in comparison to healthy controls; plates coated 10 μg/ml
Method: Human SLE patients (32 patients) were bled and their sera were tested by ELISA for their ability to bind the peptides Ia, IIa and IIIa, a control peptide p195-212 (a myasthogenic peptide described in PCT publication No. WO 94/00148) or mAb 5G12.
Detection of the antibodies was conducted on plates that were coated with 10 μg/ml of peptides Ia, IIa, IIIa or p195-212 or mAb 5G12, in PBS for 2 hr, washed and blocked with 1% ovalbumin in PBS for an additional 2 hr. ELISA was continued as described after blockage in Example 2 above, using goat anti-human IgG polyclonal antibody conjugated to peroxidase.

[2] = tested on: peripheral blood lymphocytes (PBL); experiment: IL-2 production by PBL of SLE patients and healthy controls; assay type: cell-based, human; conditions: sample at 24 hr
Method: (§1) PBL from human SLE patients and of the appropriate control donors (2×10^5/well) were cultured in microtiter plates in enriched medium containing 10% pooled AB sera in the presence of the human or mouse monoclonal 16/6 Id antibody, in the presence of peptides of the invention or in the presence of phytohemagglutinin (PHA). The rate of proliferation was evaluated by the incorporation of ^3[H]-thymidine in the cell culture. Non-relevant peptides were used as specificity controls. Antigen and mitogen-stimulated cytokine production was quantitated in the supernatants of the above cultures using either the cytokine-dependent lines or the appropriate pairs of antibodies in ELISA assays. Inhibition of the proliferative responses was performed in vitro by adding increasing doses of the tested peptide analogs into the proliferative culture mixtures.
PBL were isolated from blood of SLE patients or healthy controls using ficol gradient, and were incubated as in Example 13. A sample of 50 μl was removed 24 hr after the assay was started, and incubated in the presence of IL-2 sensitive cells (CTLD) for 24 hr, after which ^3H-thymidine was added for 16 hr, and the plates were harvested and counted on a beta counter.

BALB/c and SJL mice = experiment: Clinical manifestations of SLE in immunized mice (WBC, proteinuria, kidney analysis); assay type: in vivo, mouse
Method: The erythrocyte sedimentation rate was determined by diluting the heparinized blood in PBS at a ratio of 1:1. The diluted blood was then passed to a microsampling pipette and the sedimentation was measured 6 hours later. White blood cell counts were determined after the hemolysis of heparinized blood. Proteinuria was measured in a semi-quantitative manner, using a Combistix kit (Ames, Stoke Poges, Slough, U.K.). Immunohistology was performed by incubation of fixed frozen cryostat sections with FITC-labeled antibodies to mouse Ig. Staining was visualized via use of a fluorescent microscope.
BALBtc and SJL mice were immunized with mAb 5G12 or with peptides Ia and IIIa, and five months later were checked by two criteria for manifestation of SLE: white blood cell count (WBC) and proteinuria.
(i) White blood cell count (WBC): The mice were bled, their blood was diluted 1:10 with 1% (vol/vol) acetic acid in order to eliminate the red blood cells, and white blood cells were counted under a normal light microscope.
Proteinuria: The urine of the mice was tested using combisticks (Combistix Kit, Ames) for the presence of protein.

[3] = tested on: peripheral blood lymphocytes (PBL); experiment: Proliferation of PBL from SLE patients and healthy controls; assay type: cell-based, human
Method: as §1
Peripheral blood lymphocytes (PBL) were isolated from the blood of SLE patients or healthy controls using ficol gradient. Thereafter, the PBL were incubated in the presence of different concentrations of the peptides Ia, IIa or IIIa, or the human 16/6 Id mAb for 24 hr, when a sample was taken for IL-2 measurement. The assay was continued for a total of 7 days, and ^3H-thymidine was added for the last 16 hr. Proliferation was detected by reading the amount of radioactivity incorporated into the DNA of the cells.

[4] = target: MHC class II products (H-2s) on splenic antigen-presenting cells of SJL mice (mouse); experiment: flow cytometry, inhibition of binding of biotinylated peptide IIIa (competitor) to SJL APC
[5] = target: MHC class II products (H-2d) on splenic antigen-presenting cells of BALB/c mice (mouse) (UniProt P04228); experiment: flow cytometry, inhibition of binding of biotinylated peptide IIIa (competitor) to BALB/c APC
[6] = target: MHC class II products (H-2s) on splenic antigen-presenting cells of SJL mice (mouse); experiment: flow cytometry, inhibition of binding of biotinylated peptide Ia (competitor) to SJL APC
[7] = target: MHC class II products (H-2b) on splenic antigen-presenting cells of C3H.SW mice (mouse) (UniProt P14434); experiment: flow cytometry, inhibition of binding of biotinylated peptide Ia (competitor) to C3H.SW APC
[8] = target: MHC class II products (H-2b) on splenic antigen-presenting cells of C3H.SW mice (mouse) (UniProt P14434); experiment: flow cytometry, inhibition of binding of biotinylated peptide IIIa (competitor) to C3H.SW APC
[9] = target: MHC class II products (H-2b) on splenic antigen-presenting cells of C57BL/6 mice (mouse) (UniProt P14434); experiment: flow cytometry, inhibition of binding of biotinylated peptide Ia (competitor) to C57BL/6 APC
[10] = target: MHC class II products (H-2b) on splenic antigen-presenting cells of C57BL/6 mice (mouse) (UniProt P14434); experiment: flow cytometry, inhibition of binding of biotinylated peptide IIIa (competitor) to C57BL/6 APC
[11] = target: MHC class II products (H-2d) on splenic antigen-presenting cells of BALB/c mice (mouse) (UniProt P04228); experiment: flow cytometry, inhibition of binding of biotinylated peptide Ia (competitor) to BALB/c APC

% inhibition [4]	% inhibition [5]	% inhibition [6]	% inhibition [7]	% inhibition [8]	% inhibition [9]	% inhibition [10]	% inhibition [11]	Substance	levels of serum antibodies that bind the coated peptide or mAb [1]	IL-2 production by PBL, actual number of responders ([2]; SLE patients)	IL-2 production by PBL, percentage of responders ([2]; SLE patients)	IL-2 production by PBL, actual number of responders ([2]; healthy controls)	IL-2 production by PBL, percentage of responders ([2]; healthy controls)	protein level in urine (in words) (BALB/c and SJL mice; BALB/c mice)	protein level in urine (in words) (BALB/c and SJL mice; SJL mice)	proliferation of PBL, actual number of responders ([3]; SLE patients)	proliferation of PBL, percentage of responders ([3]; SLE patients)	proliferation of PBL, actual number of responders ([3]; healthy controls)	proliferation of PBL, percentage of responders ([3]; healthy controls)
–	–	–	–	–	–	–	–	EINPSTGGTTYNQKFKAKAT (EINPSTGGTTYNQKFKAKAT) [peptide IIa, based on the CDR2 region of the VH chain of mAb 5G12]	significantly higher levels of antibodies	3/32	9%	8/25	32%	smaller increase in protein level	High levels of protein	3/32	9%	7/25	28%
0%	100%	0%	0%	25%	0%	0%	76.7%	MKD6 (anti-I-A^d, Beckton-Dickinson) (antibody)	–	–	–	–	–	–	–	–	–	–	–
92.8%	–	100%	–	–	–	–	–	10.3.6.2 (anti-I-A^s (Zamvil et al., 1988)) (antibody)	–	–	–	–	–	–	–	–	–	–	–
–	0%	–	60%	84.4%	82%	59.3%	0%	34-5-3 (anti-I-A^b, Pharmingen) (antibody)	–	–	–	–	–	–	–	–	–	–	–
